Data published in publication PMC11815680, “Receptor-independent regulation of Gα13 by alpha-1-antitrypsin C-terminal peptides” (The Journal of Biological Chemistry, 2024).

Tests used:
Details in all cases: both partners purified
[1] = molecular target: T1, GST-p115-RH(42-252), the RGS box of p115-RhoGEF-RH which lacks the N-terminal extension (human, UniProt Q92888 42-252); experiment: pull-down; as a2 but buffer A with 10 μM GDP and mAAT-C_(1-17) added instead of AlF4^-
T1 construct: human p115RhoGEF, residues 42-252 (RGS box, lacks the N-terminal extension); also called p115-RhoGEF-RH domain (42–252); source: E. coli BL21[DE3], purified (glutathione-sepharose 4B, eluted with glutathione, dialysed)
T1 sequence (looked up): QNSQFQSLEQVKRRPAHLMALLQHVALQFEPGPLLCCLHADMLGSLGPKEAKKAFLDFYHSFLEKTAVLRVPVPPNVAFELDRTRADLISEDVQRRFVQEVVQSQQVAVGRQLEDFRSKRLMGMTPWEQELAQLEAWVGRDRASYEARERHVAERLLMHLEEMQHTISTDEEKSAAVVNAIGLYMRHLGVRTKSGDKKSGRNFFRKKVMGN

[2] = molecular target: T2, GST-LARG-RH (human LARG amino acid residues 319-598) (human, UniProt Q9NZN5 319-598); experiment: pull-down; as a2 but buffer A with 10 μM GDP and mAAT-C_(3-16) added instead of AlF4^-
T2 construct: human LARG (leukemia-associated RhoGEF), amino acid residues 319-598; also called leukemia-associated RhoGEF RH; source: E. coli BL21[DE3], purified (glutathione-sepharose 4B, eluted with glutathione, dialysed)
T2 sequence (looked up): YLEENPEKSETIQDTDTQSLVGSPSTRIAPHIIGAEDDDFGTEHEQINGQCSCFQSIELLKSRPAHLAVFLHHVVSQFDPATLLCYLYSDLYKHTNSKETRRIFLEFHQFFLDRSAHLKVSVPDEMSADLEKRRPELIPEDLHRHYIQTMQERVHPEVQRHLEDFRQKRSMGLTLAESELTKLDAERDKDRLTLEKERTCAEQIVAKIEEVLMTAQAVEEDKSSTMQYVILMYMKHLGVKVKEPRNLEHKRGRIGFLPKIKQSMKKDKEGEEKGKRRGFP

[3] = molecular target: T3, GST-p115-RH (human p115RhoGEF amino acid residues 1-252, N-terminal region including the RH domain) (human, UniProt Q92888 1-252); experiment: pull-down; GST-RH protein on glutathione-Sepharose 4B, untagged Gα13iN (2 μg) in buffer A (20 mM HEPES, 5 mM βME, 1 mM MgCl2, 100 mM NaCl, 10 μM GDP, 0.1% C12E10, pH 8.0) with AlF4^- (30 μM AlCl3, 5 mM MgCl2, 5 mM NaF), 60 min at 4 °C; blot with Gα13 antibodies
T3 construct: human p115RhoGEF, amino acid residues 1-252 (the results once say 1-246); also called p115-RhoGEF-RH; source: E. coli BL21[DE3], purified (glutathione-sepharose 4B, eluted with glutathione, dialysed)
T3 sequence (looked up): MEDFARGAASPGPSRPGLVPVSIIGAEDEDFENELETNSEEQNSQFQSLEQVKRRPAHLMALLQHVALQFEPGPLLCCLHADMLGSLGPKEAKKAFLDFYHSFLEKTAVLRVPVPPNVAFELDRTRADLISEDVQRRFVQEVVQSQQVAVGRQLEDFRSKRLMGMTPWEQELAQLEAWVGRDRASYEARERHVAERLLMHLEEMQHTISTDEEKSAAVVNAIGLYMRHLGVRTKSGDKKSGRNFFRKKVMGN

Measured: binding result

B1: untagged Gα13iN recombinant protein (GDP-bound) (other, rat | mouse, UniProt P10824 1-28, looked up)
chain: MGCTLSAEDKAAVERSKMIDRNLREDGERLVKILLLGAGESGKSTFLKQMRIIHGQDFDQRAREEFRPTIYSNVIKGMRVLVDAREKLHIPWGDNKNQLHGDKLMAFDTRAPMAAQGMVETRVFLQYLPAIRALWEDSGIQNAYDRRREFQLGESVKYFLDNLDKLGVPDYIPSQQDILLARRPTKGIHEYDFEIKNVPFKMVDVGGQRSERKRWFECFDSVTSILFLVSSSEFDQVLMEDRQTNRLTESLNIFETIVNNRVFSNVSIILFLNKTDLLEEKVQVVSIKDYFLEFEGDPHCLRDVQKFLVECFRGKRRDQQQRPLYHHFTTAINTENIRLVFRDVKDTILHDNLKQLMLQ
notes: N-terminal region (αN helix) of rat Gαi1, amino acid residues 1-28; A few vector residues are likely left after PreScission cleavage of the pGEX-6P-1 product (surmise); also called Gα13iN・GDP; Gα13・GDP; source: E. coli BL21[DE3], purified (glutathione-sepharose 4B, cut off the column with PreScission Protease, dialysed; GDP added to 10 μM)
binds: all assays above
